Data on 1 compound can be found in US20250108138A1, “TH[…] CONJUGATES” (MERCK PATENT GMBH, priority 2022, published 2025).

By Kd is commonly meant the concentration at which binding is half-saturated. The low end stands for higher affinity, the high end for lower affinity.

Series [1] deals with T1, mouse serum albumin (MSA) (Mus musculus, UniProt P07724).
T1 construct: The amount of serum albumin in mouse (MSA) and human (HSA) blood plasma was defined as 550 μM and 800 μM; tissue Rockland Immunochemicals, Inc., USA; host or cells: mouse blood plasma
Description: Relative albumin-binding affinity (B50), mouse blood plasma. The conditions noted are these: inverse ratio of B50, normalized to [^177Lu]Lu-OxFol-1 (set as 1.0). Format: in vitro ADME. Here is the method:
(§1) Relative albumin-binding affinity of the folate radioconjugates of the disclosure: The albumin-binding affinity of the folate radioconjugates of the disclosure was assessed and compared to that of [^177Lu]Lu-OxFol-1. A fixed amount of radioconjugate (50 MBq/nmol), ^˜300 kBq, 15 μL, 0.006 nmol) was added to a defined volume (150 μL) of mouse and human blood plasma and various dilutions thereof in PBS pH 7.4, resulting in defined mouse serum albumin (MSA)-to-folate radioconjugate or human serum albumin (HSA)-to-folate radioconjugate molar concentration ratios ranging from 0.01 to 12′500 and 0.01 to 20′000, respectively. The albumin-bound fraction was determined using an ultrafiltration device as described above.
(§2) The data were analyzed using a semi-logarithmic plot assuming a maximum binding of 100%. The Hill equation was fitted to the data points and the half-maximum binding (B50) was determined based on the obtained binding curves (GraphPad Prism software, version 8). The relative albumin-binding affinities were defined as the inverse ratio of the B50 value of each radioconjugate of the disclosure to the reference compound [^177Lu]Lu-OxFol-1 (set as 1.0). […] The results were presented as average±SD of 2-3 independent experiments (Table 5).

Another series deals with T2, FR (Homo sapiens, UniProt P15328).
T2 construct: FR-positive IGROV-1 cells (human ovarian carcinoma cell line); endogenous in cells; host or cells: IGROV-1 human ovarian carcinoma cells
Put plainly: FR-binding affinity (KD) on FR-positive IGROV-1 cells. The settings on record: 1 h at 4° C., specific binding (excess folic acid block). Here is the method: The determination of the KD values was performed as previously reported (Deberle, L. M. et al; Bioconj Chem 2021, 32, p. 1617). FR-positive IGROV-1 cells (human ovarian carcinoma cell line, kindly provided by Dr. Gerrit Janssen, Free University Medical Center Amsterdam, The Netherlands) were seeded in 48-well plates (2.5×10^5 cells/well) in 500 μL FFRPMI medium with supplements. The cells were incubated at 37° C. and 5% CO2 to allow cell adhesion overnight. The experiment was performed on ice using ice-cold medium and buffer solutions. After removal of the supernatant, the cells were rinsed once with PBS prior to the addition of FFRPMI medium without supplements (450 μL/well). The respective folate radioconjugate of the disclosure (20 MBq/nmol) was added to each well at variable concentrations (in the range of 0.1 to 500 nM, 50 μL per well). […] The IGROV-1 tumor cells were incubated for 1 h at 4° C. on a shaker, followed by removal of the supernatants and rinsing the cells twice with PBS. After lysis of the cells with NaOH solution (1 M, aq., 500 μL), the samples were counted for activity in a γ-counter (Wallac Wizard 1480, Perkin Elmer). The counts per minute (cpm) of the specific binding (determined by subtracting the cpm of the unspecific binding from the cpm of total binding), were plotted against the molar concentration of the added folate radioconjugates of the disclosure. […]

The nature of series [2]: n-octanol/PBS distribution coefficient (log D). The settings on record: n-octanol/PBS pH 7.4, mean±SD. The series is classed as physicochemical. Here is the method: Example 5: PBS/n-Octanol Distribution Coefficient (Log D Values) The n-octanol/PBS distribution coefficients (log D values) were determined for each folate radioconjugate of the disclosure and a reference compound in order to assess their hydrophilic/hydrophobic properties. The log D values of the folate radioconjugates of the disclosure (50 MBq/nmol) were determined as previously reported, after dilution in PBS pH 7.4 to obtain an activity concentration of 10 MBq/500 μL. A sample of each radiofolate (ca. 0.5 MBq, 25 μL, 0.01 nmol) was added to a mixture of 1475 μL PBS pH 7.4 and 1500 μL n-octanol. The vials were vortexed vigorously for 1 min followed by centrifugation for 6 min at 2500 rpm for phase separation. An aliquot was taken from each phase and measured in a gamma-counter (Perkin Elmer, Wallac Wizard 1480). The distribution coefficients were calculated as the logarithm of the ratio of counts per minute (cpm) measured in the n-octanol phase relative to the cpm measured in the PBS phase. The results were listed as mean±SD of the data obtained from 3-4 independent experiments, each performed with five replicates.

For series [3], the target named is T3, albumin in human blood plasma (Homo sapiens, UniProt P02768).
T3 construct: tissue Stiftung Blutspende SRK Aargau-Solothurn, Switzerland; host or cells: human blood plasma
Put plainly: Albumin-bound fraction, ultrafiltration filter assay, human blood plasma. Format: in vitro ADME. The conditions noted are these: 37° C., 30 min, percentage of total activity measured. Here is the method:
(§3) Albumin-binding properties were determined in mouse and human blood plasma. The albumin-binding properties of the folate radioconjugates of the disclosure in mouse blood plasma (Rockland Immunochemicals, Inc., USA) and human blood plasma (Stiftung Blutspende SRK Aargau-Solothurn, Switzerland) were determined using an ultrafiltration method (Deberle, L. M. et al., Molecules 2020, 25, (11)). The amount of serum albumin in mouse (MSA) and human (HSA) blood plasma was defined as 550 μM and 800 μM, respectively, based on measurements using a dry chemistry analyzer (DRI-CHEM 4000i, FUJIFILM, Japan). The folate radioconjugates of the disclosure (50 MBq/nmol, ca. 300 kBq, 0.006 nmol in 15 μL) were added to samples of mouse and human blood plasma (150 μL), followed by incubation of the samples at 37° C. for 30 min. The samples were loaded on Amicon centrifugal filters (cut-off of 10 kDa; Merck Millipore) followed by centrifugation (14,000 rcf, 30 min, 4° C.) to allow the separation of the plasma-bound from the plasma-unbound (free) fractions of each sample. […] The activity of the protein-bound fraction as well as the activity in the filtrate and in the filter unit were measured separately in a gamma-counter (Perkin Elmer, Wallac Wizard 1480). The percentage of radioconjugate bound to mouse and human albumin, respectively, was set in relation to the total activity measured (Table 4).

Series [4] deals with T4, albumin in mouse blood plasma (Mus musculus, UniProt P07724).
T4 construct: tissue Rockland Immunochemicals, Inc., USA; host or cells: mouse blood plasma
Put plainly: Albumin-bound fraction, ultrafiltration filter assay, mouse blood plasma. The series is classed as in vitro ADME. The settings on record: 37° C., 30 min, percentage of total activity measured. Here is the method:
as §3

Series [5] concerns the target T5, human serum albumin (HSA) (Homo sapiens, UniProt P02768).
T5 construct: tissue Stiftung Blutspende SRK Aargau-Solothurn, Switzerland; host or cells: human blood plasma
Put plainly: Relative albumin-binding affinity (B50), human blood plasma. The series is classed as in vitro ADME. The settings on record: inverse ratio of B50, normalized to [^177Lu]Lu-OxFol-1 (set as 1.0). Here is the method:
as §1, §2

SMILES strings stand for the structures.

T2 sequence (P15328 25-234): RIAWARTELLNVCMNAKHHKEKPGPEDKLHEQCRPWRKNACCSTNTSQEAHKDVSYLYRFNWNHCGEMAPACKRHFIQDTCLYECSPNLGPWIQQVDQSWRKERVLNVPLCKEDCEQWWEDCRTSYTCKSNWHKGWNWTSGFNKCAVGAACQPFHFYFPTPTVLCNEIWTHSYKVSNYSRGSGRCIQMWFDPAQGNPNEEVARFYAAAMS
T4 sequence (P07724 25-608): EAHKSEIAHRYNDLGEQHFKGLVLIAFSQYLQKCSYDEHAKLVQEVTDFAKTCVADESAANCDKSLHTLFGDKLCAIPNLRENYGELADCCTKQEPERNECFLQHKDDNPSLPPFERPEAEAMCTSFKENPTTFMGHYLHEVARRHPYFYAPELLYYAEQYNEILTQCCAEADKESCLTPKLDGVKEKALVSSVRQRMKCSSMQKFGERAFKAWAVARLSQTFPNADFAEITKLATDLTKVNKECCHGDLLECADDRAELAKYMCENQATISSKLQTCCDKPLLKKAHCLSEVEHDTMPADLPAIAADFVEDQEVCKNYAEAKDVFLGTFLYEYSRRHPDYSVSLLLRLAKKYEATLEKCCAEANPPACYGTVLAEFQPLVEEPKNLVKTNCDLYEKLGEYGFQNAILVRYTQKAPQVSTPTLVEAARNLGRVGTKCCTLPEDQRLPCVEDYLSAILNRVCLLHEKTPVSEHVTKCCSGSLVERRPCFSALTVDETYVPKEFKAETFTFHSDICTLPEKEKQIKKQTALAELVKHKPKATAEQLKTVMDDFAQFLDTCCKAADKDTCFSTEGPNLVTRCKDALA
T1 sequence (P07724 25-608): as above
T5 sequence (P02768 25-609): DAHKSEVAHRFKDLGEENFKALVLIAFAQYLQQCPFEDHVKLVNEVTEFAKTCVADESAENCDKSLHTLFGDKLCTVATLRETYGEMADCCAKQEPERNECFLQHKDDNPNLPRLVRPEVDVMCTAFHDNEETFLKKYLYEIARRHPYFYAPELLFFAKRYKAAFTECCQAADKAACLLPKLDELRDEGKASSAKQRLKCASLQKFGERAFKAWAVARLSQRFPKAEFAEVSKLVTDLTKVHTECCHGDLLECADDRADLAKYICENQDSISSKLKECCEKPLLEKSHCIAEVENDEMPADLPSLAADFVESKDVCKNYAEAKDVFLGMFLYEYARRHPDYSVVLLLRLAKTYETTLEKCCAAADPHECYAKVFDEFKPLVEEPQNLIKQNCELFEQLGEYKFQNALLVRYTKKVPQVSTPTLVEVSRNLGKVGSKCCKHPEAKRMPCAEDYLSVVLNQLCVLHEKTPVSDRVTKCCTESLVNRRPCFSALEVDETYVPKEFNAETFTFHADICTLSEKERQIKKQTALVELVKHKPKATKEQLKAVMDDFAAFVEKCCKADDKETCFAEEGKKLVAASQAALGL
T3 sequence (P02768 25-609): as above

As for `Nc1nc2ncc(CNc3ccc(C(=O)N[C@@H](CCC(=O)N[C@@H](CCCCNC(=O)CN4CCN(CC(=O)O)CCN(CC(=O)O)CCN(CC(=O)O)CC4)C(=O)N[C@@H](CCCCNC(=O)CCCc4ccc(I)cc4)C(=O)O)C(=O)O)cc3)nc2c(=O)[nH]1` [[^177Lu]Lu-OxFol-1, metal not drawn], the “Relative albumin-binding affinity, mouse plasma” value in series [1] is reported as 1.00. Further, the affinity at FR, expressed as Kd, was 2.8 nM. The “logD Value” in series [2] is recorded as −4.2 ± 0.2. The “Albumin-bound fraction, human blood plasma” value in series [3] was 96%. Moreover, in series [4], the “Albumin-bound fraction, mouse blood plasma” value came out at 90%. In addition, the “Relative albumin-binding affinity, human plasma” value in series [5] is listed as 1.00.
